The text below walks through data of patent publication US20200385425A1.

For this test, the target named is PDZ1/2 domain (Homo sapiens (Human)) (UniProt P78352). Kind of test: SPR, Biacore 3000, PDZ1/2 amine-coupled on CM5 chip, peptide as analyte, 1:1 binding model.
Chain of PDZ1/2 domain (Homo sapiens (Human)) (P78352 65-246 limits assumed): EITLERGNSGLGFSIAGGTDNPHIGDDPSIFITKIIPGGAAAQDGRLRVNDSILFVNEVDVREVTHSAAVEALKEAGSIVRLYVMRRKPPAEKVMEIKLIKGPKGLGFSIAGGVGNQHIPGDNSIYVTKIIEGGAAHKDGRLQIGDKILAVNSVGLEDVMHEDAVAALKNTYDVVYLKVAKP

The Kd is the equilibrium constant for the complex coming apart. A higher Kd goes with lower affinity. control chimeric peptide NA-1 displayed an equilibrium dissociation constant (Kd) of 75.3 nM.
